Laboratory results reported in PMC9302720.

Target: SARS-CoV-2 protein S ectodomain, Wuhan-Hu-1 variant (SARS-CoV-2 | not stated) (UniProt P0DTC2)
Test: BLI

N-terminal peptidase domain of human ACE2 (domain or fragment)
Kd: 79.3 nM
koff: 0.0162 s⁻¹
kon: 210000 M⁻¹ s⁻¹
